Assay results as given in patent US20250197499A1 (STEALTH IO, published 2025).

Key:
[1] = target: T1, Recombinant human sCD28 Fc-fusion protein (PeproTech, #310-34) (human, UniProt P10747 19-152); test: Octet RED96e; sCD28 Fc-fusion loaded at 2,5 µg/ml on protA sensor; sample 588,2 nM; control without CD28-binding Fab
T1 construct: Bought protein; also called soluble CD28; not shown: Fc part of the bought fusion; not described
Method: (§1) FIG. 5a is a graph of Octet binding studies on sCD28. Recombinant human sCD28 Fc-fusion protein (PeproTech, #310-34) was loaded to protA sensor at 2.5 μg/ml and the binding of each construct was evaluated by Octet RED96e.
(§2) FIG. 5c is a graph depicting the KD values of anti-CD28/sPD-1 constructs on human sCD28 Fc-fusion protein by Octet RED96e. The equilibrium dissociation constant (KD) is calculated as the ratio koff/kₒₙ (with koff:dissociation rates, and kₒₙ:association rates).
(§3) Anti-CD28/sPD-1 antibody fusion constructs were assessed for their ability to bind CD28 by Octet RED96e. Recombinant human sCD28 Fc-fusion protein (PeproTech, #310-34) was loaded to protA sensor at 2.5 μg/ml. […] FIG. 5c is a summary of affinity (measured as Kd, M) for each construct on human CD28.

[2] = target: T2, Recombinant human PD-L2-His tag (ACROBiosystems, #PD2-H5220) (human, UniProt Q9BQ51 20-219); test: Octet RED96e; PD-L2-His loaded at 10 µg/ml on HIS1K sensor; sample 588,2 nM
T2 construct: Bought protein; also called sPD-L2; human PD-L2-His tag protein; not shown: His tag
T2 sequence (looked up): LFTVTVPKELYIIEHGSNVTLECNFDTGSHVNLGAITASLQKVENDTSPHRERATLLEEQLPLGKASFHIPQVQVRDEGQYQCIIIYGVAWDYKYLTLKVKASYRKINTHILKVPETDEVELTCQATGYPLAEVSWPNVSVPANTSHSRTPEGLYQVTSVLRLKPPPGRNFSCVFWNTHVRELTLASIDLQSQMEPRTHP
Method: (§4) FIG. 4a is a graph of Octet binding studies on sPD-L2. Recombinant human PD-L2-His tag (ACROBiosystems, #PD2-H5220) was loaded to His-sensor (HIS1 K (Anti-Penta-His)) at 10 μg/ml and the binding of each construct was evaluated by Octet RED96e.
(§5) FIG. 4c is a graph depicting the KD values of anti-CD28/sPD-1 constructs on human PD-L2-His tag protein by Octet RED96e. The equilibrium dissociation constant (KD) is calculated as the ratio koff/kₒₙ (with koff:dissociation rates, and kₒₙ:association rates).
(§6) Anti-CD28/sPD-1 antibody fusion constructs were assessed for their ability to bind PD-1 ligands, PD-L1 and PD-L2 by Octet RED96e. Recombinant human PD-L1-His tag (ACROBiosystems, #PD1-H5229) or recombinant human PD-L2-His tag (ACROBiosystems, #PD2-H5220) were loaded to His-sensor (HIS1 K (Anti-Penta-His)) at 10 μg/ml. […] FIG. 3c is a summary of affinity (measured as Kd, M) for each construct on human PD-L1. […] FIG. 4c is a summary of affinity (measured as Kd, M) for each construct on human PD-L2.

[3] = target: T3, Recombinant human PD-L1-His tag (ACROBiosystems, #PD1-H5229) (human, UniProt Q9NZQ7 19-238); test: Octet RED96e; PD-L1-His loaded at 10 µg/ml on HIS1K sensor; sample 117,6 nM
T3 construct: Bought protein; also called sPD-L1; human PD-L1-His tag protein; not shown: His tag
Method: (§7) FIG. 3a is a graph of Octet binding studies on sPD-L1. Recombinant human PD-L1-His tag (ACROBiosystems, #PD1-H5229) was loaded to His-sensor (HIS1K (Anti-Penta-His)) at 10 μg/ml and the binding of each construct was evaluated by Octet RED96e.
(§8) FIG. 3c is a graph depicting the KD values of anti-CD28/sPD-1 constructs on human PD-L1-His tag protein by Octet RED96e. The equilibrium dissociation constant (KD) is calculated as the ratio koff/kₒₙ (with koff:dissociation rates, and kₒₙ:association rates).
as §6

[4] = target: T3, Recombinant human PD-L1-His tag …; test: Octet RED96e; PD-L1-His loaded at 10 µg/ml on HIS1K sensor; sample 588,2 nM
Method: as §7, §8, §6

[5] = target: T1, Recombinant human sCD28 Fc-fusion …; test: Octet RED96e; sCD28 Fc-fusion loaded at 2,5 µg/ml on protA sensor; sample 117,6 nM; control without CD28-binding Fab
Method: as §1, §2, §3

[6] = target: T2, Recombinant human PD-L2-His tag …; test: Octet RED96e; PD-L2-His loaded at 10 µg/ml on HIS1K sensor; sample 117,6 nM
Method: as §4, §5, §6

[7] = target: T3, Recombinant human PD-L1-His tag …; test: Octet RED96e, PD-L1-His on HIS1K sensor
Method: as §7, §8, §6

[8] = target: T2, Recombinant human PD-L2-His tag …; test: Octet RED96e, PD-L2-His on HIS1K sensor
Method: as §4, §5, §6

[9] = target: T3, Recombinant human PD-L1-His tag …; test: Octet RED96e; PD-L1-His loaded at 10 µg/ml on HIS1K sensor; sample 277,8 nM
Method: as §7, §8, §6

[10] = target: T2, Recombinant human PD-L2-His tag …; test: Octet RED96e; PD-L2-His loaded at 10 µg/ml on HIS1K sensor; sample 55,6 nM
Method: as §4, §5, §6

[11] = target: T3, Recombinant human PD-L1-His tag …; test: Octet RED96e; PD-L1-His loaded at 10 µg/ml on HIS1K sensor; sample 55,6 nM
Method: as §7, §8, §6

[12] = target: T2, Recombinant human PD-L2-His tag …; test: Octet RED96e; PD-L2-His loaded at 10 µg/ml on HIS1K sensor; sample 277,8 nM
Method: as §4, §5, §6

[13] = target: T2, Recombinant human PD-L2-His tag …; test: Octet RED96e; PD-L2-His loaded at 10 µg/ml on HIS1K sensor; sample 66,7 nM; negative control, response about zero, round fit values
Method: as §4, §5, §6

[14] = target: T3, Recombinant human PD-L1-His tag …; test: Octet RED96e; PD-L1-His loaded at 10 µg/ml on HIS1K sensor; sample 66,7 nM; negative control, response about zero, round fit values
Method: as §7, §8, §6

B1: nonvalent (or dummy) Fc/sPD-1 mut (Fc fusion)
chain: DKTHTCPPCPAPEFEGGPSVFLFPPKPKDTLMISRTPEVTCVVVDVSHEDPEVKFNWYVDGVEVHNAKTKPREEQYNSTYRVVSVLTVLHQDWLNGKEYKCKVSNKALPASIEKTISKAKGQPREPQVYTLPPSREEMTKNQVSLTCLVKGFYPSDIAVEWESNGQPENNYKTTPPVLDSDGSFFLYSKLTVDKSRWQQGNVFSCSVMHEALHNHYTQKSLSLSPGGGGSGGGGSGGGGSLDSPDRPWNPPTFSPALLVVTEGDNATFTCSFSNTSESFVLNWYRMSPSNQTDKLAAFPEDRSQPGQDCRFRVTQLPNGRDFHMSVVRARRNDSGTYLCSAISLAPYIQIKESLRAELRVTERRAEVPTAHPSPSPRPAGQFQ
notes: also called Fc/sPD-1 mutated; Fc/sPD-1 mutant construct
Which results are given for B1?
Kd [1]: 17.8 nM; koff [1]: 0.000107 s⁻¹; kon [1]: 6000 M⁻¹ s⁻¹; Kd [2]: 0.0118 nM; koff [2]: 5.99e-07 s⁻¹; kon [2]: 50700 M⁻¹ s⁻¹; Kd [3]: 2.24 nM; koff [3]: 0.00132 s⁻¹; kon [3]: 588000 M⁻¹ s⁻¹; Kd [4]: 0.00629 nM; koff [4]: 6.93e-07 s⁻¹; kon [4]: 110000 M⁻¹ s⁻¹; Kd [5]: 2950 nM; koff [5]: 0.00204 s⁻¹; kon [5]: 692 M⁻¹ s⁻¹; Kd [6]: 1.56 nM; koff [6]: 0.000461 s⁻¹; kon [6]: 295000 M⁻¹ s⁻¹

B2: bivalent anti-CD28/sPD-1 wt (bispecific antibody, human IgG1, kappa)
light: DIELTQSPASLAVSLGQRATISCRASESVEYYVTSLMQWYQQKPGQPPKLLIFAASNVESGVPARFSGSGSGTNFSLNIHPVDEDDVAMYFCQQSRKVPYTFGGGTKLEIKRTVAAPSVFIFPPSDEQLKSGTASVVCLLNNFYPREAKVQWKVDNALQSGNSQESVTEQDSKDSTYSLSSTLTLSKADYEKHKVYACEVTHQGLSSPVTKSFNRGEC
heavy: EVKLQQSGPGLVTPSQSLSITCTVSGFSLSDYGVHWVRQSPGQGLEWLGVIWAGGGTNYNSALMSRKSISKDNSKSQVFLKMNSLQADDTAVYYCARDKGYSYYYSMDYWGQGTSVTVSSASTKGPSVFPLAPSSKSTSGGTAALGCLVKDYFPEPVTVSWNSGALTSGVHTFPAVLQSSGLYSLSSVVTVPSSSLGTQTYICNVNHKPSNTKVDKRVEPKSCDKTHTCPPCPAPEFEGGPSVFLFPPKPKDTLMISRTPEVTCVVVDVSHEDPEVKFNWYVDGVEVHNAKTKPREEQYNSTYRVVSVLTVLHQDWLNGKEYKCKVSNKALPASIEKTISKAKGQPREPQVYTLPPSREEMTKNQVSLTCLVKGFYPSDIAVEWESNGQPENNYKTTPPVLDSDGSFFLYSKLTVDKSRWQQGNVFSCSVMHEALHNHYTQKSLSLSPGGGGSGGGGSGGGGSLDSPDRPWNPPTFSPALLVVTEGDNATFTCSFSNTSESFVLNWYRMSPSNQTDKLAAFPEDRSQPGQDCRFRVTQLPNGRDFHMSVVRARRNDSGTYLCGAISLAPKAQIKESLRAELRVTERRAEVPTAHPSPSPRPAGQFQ
notes: Two Fabs of clone 9.3 against CD28, two wild-type sPD-1 fragments; also called Bivalent anti-CD28/sPD-1 Wild type structure; bispecific protein complex A:B-C-X:D-C'-Y
Which results are given for B2?
Kd [7]: ~10 nM; Kd [8]: ~10 nM; Kd [9]: 37.5 nM; koff [9]: 0.0159 s⁻¹; kon [9]: 423000 M⁻¹ s⁻¹; Kd [10]: 7.73 nM; koff [10]: 0.00268 s⁻¹; kon [10]: 347000 M⁻¹ s⁻¹; Kd [11]: 21.7 nM; koff [11]: 0.0133 s⁻¹; kon [11]: 614000 M⁻¹ s⁻¹; Kd [12]: 18.1 nM; koff [12]: 0.00314 s⁻¹; kon [12]: 174000 M⁻¹ s⁻¹

B3: Monoclonal anti-CD28 (9.3) mAb (GeneTex, #GTX14664) (antibody, V domains shown)
VH: EVKLQQSGPGLVTPSQSLSITCTVSGFSLSDYGVHWVRQSPGQGLEWLGVIWAGGGTNYNSALMSRKSISKDNSKSQVFLKMNSLQADDTAVYYCARDKGYSYYYSMDYWGQGTSVTVSS
VL: DIELTQSPASLAVSLGQRATISCRASESVEYYVTSLMQWYQQKPGQPPKLLIFAASNVESGVPARFSGSGSGTNFSLNIHPVDEDDVAMYFCQQSRKVPYTFGGGTKLEIK
notes: Bought 9.3 mAb without sPD-1 fusion; also called monoclonal antibody 9.3
What does the source list for B3?
Kd [13]: 100 nM; koff [13]: 0.001 s⁻¹; kon [13]: 10000 M⁻¹ s⁻¹; Kd [14]: 100 nM; koff [14]: 0.001 s⁻¹; kon [14]: 10000 M⁻¹ s⁻¹
